{
  "source": "patent US20220381793A1",
  "about": "“COMPOSITIONS AND METHODS FOR IDENTIFYING MHC-II BINDING PEPTIDES” (priority 2021, published 2022)",
  "key": {"[1]": {"biological_target": "T1, “empty” DR4-LZ (DRA*01:01/DRB1*04:01 ectodomains with Jun/Fos leucine zippers, non-covalent heterodimer displayed on yeast through Aga2p) (human)"}, "[2]": {"biological_target": "T1, “empty” DR4-LZ (DRA*01:01/DRB1*04:01 …)", "remark": "listed apart in the source"}, "[3]": {"biological_target": "T2, “empty” DR4-LZ (DRA*01:01/DRB1*04:01 ectodomains with Jun/Fos leucine zippers, non-covalent heterodimer displayed on yeast through Aga2p)", "assay": "competition", "settings": "chains peptide; modification not given"}, "[4]": {"biological_target": "T3, “empty” DQ6-LZ (DQA1*01:02/DQB1*06:02 ectodomains with Fos/Jun leucine zippers, non-covalent heterodimer displayed on yeast through Aga2p)", "assay": "competition", "settings": "chains peptide; modification not given"}, "[5]": {"biological_target": "T3, “empty” DQ6-LZ (DQA1*01:02/DQB1*06:02 …)", "assay": "flow", "settings": "chains peptide; modification not given"}, "[6]": {"biological_target": "T2, “empty” DR4-LZ (DRA*01:01/DRB1*04:01 …)", "assay": "flow", "settings": "chains peptide; modification not given"}},
  "note": "Where two headings read alike, the source gives them in different places. No end group written: not given here. Ahx = NCCCCCC(=O)O",
  "data": [
    {"binder": "HGVVFLHVTYVPAQEKN (modifications not checked)", "note": "[S1058-1074, P0DTC2 1058-1074]", "values": [
      {"measurement": "% competition", "setting": "[1]", "value": 75, "unit": "%"}
    ]},
    {"binder": "NRALTGIAVEQDKNTQE (modifications not checked)", "note": "[S764-780, P0DTC2 764-780]", "values": [
      {"measurement": "% competition", "setting": "[2]", "value": "< 50", "unit": "%"}
    ]},
    {"binder": "PKYVKQNTLKLAT", "note": "[non-biotinylated HA306-318]", "values": [
      {"measurement": "IC50", "setting": "[3]", "value": 66.8, "unit": "µM"}
    ]},
    {"binder": "QASGNHAAGILTMGR", "note": "[HCRT85-99, O43612 85-99]", "values": [
      {"measurement": "IC50", "setting": "[4]", "value": 25.2, "unit": "µM"}
    ]},
    {"binder": "MNLPSTKVSWAAVK-{Ahx-biotin}", "note": "[HCRT1-13-Bio (…-Ahx-biotin)]", "values": [
      {"measurement": "Kd", "setting": "[5]", "value": 12.5, "unit": "µM"}
    ]},
    {"binder": "PKYVKQNTLKLAT", "note": "[Bio-HA306-318 (biotin-Ahx-…)]", "values": [
      {"measurement": "Kd", "setting": "[6]", "value": 33.2, "unit": "µM"}
    ]}
  ]
}
